How the values were obtained:
Fc-hROR1(d2d3) = biological target: T1, Fc-hROR1(d2d3) (human, UniProt Q01973 161-406, limits assumed); assay: ELISA, coated domain construct
T1 construct: domain: d2-Frizzled and d3-Kringle; Order from the name; not shown: human Fc region

Fc-hROR1(d2) = biological target: T2, Fc-hROR1(d2) (human, UniProt Q01973 161-307, limits assumed); assay: ELISA, coated domain construct
T2 construct: domain: d2-Frizzled; Order from the name; not shown: human Fc region

Fc-hROR(d3) = biological target: T3, Fc-hROR(d3) (human, UniProt Q01973 308-406, limits assumed); assay: ELISA, coated domain construct
T3 construct: domain: d3-Kringle; Order from the name; not shown: human Fc region
T3 sequence (Q01973 308-406 limits assumed): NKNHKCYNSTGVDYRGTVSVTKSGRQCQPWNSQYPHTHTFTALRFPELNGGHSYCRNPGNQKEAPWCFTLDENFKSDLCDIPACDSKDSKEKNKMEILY

[1] = biological target: T4, human ROR1-ECD (ROR1-derived extracellular domain fragment without Fc) (human, UniProt Q01973 30-406); assay: SPR (BIACORE X100), ROR1-ECD coupled to CM5 chip, bivalent IgG injected, 1:1 Langmuir model
T4 construct: extracellular domain; also called hROR1ECD; ROR-ECD
T4 sequence (Q01973 30-406): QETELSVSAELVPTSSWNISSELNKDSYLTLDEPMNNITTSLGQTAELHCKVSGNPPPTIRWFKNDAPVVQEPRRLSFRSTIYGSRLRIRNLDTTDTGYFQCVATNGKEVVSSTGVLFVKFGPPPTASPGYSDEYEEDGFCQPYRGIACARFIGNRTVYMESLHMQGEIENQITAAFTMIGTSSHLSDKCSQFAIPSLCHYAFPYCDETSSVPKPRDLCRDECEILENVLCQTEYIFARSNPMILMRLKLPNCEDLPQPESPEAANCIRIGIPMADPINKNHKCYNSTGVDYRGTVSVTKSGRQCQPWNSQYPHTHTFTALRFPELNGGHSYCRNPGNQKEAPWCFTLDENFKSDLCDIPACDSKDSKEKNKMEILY

T1 sequence (Q01973 161-406 limits assumed): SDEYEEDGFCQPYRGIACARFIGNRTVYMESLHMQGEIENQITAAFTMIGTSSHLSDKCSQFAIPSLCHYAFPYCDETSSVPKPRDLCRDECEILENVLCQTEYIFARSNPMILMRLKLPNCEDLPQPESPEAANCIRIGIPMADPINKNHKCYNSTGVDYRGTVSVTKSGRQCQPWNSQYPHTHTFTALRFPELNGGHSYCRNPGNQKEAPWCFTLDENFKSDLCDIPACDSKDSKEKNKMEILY
T2 sequence (Q01973 161-307 limits assumed): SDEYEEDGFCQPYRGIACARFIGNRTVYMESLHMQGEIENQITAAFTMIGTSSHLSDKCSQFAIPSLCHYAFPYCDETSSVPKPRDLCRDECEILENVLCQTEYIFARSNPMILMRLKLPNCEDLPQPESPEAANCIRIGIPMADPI

B1: mouse monoclonal antibody (mAb) 2A2 (antibody, mouse IgG1, V domains shown)
VH: QVQLQQSGAELVRPGASVTLSCKASGYTFSDYEMHWVIQTPVHGLEWIGAIDPETGGTAYNQKFKGKAILTADKSSSTAYMELRSLTSEDSAVYYCTGYYDYDSFTYWGQGTLVTVSA
VL: DIVMTQSQKIMSTTVGDRVSITCKASQNVDAAVAWYQQKPGQSPKLLIYSASNRYTGVPDRFTGSGSGTDFTLTISNMQSEDLADYFCQQYDIYPYTFGGGTKLEIK
notes: also called mouse mAb 2A2
Fc-hROR1(d2d3)
  binding result: no binding
Fc-hROR1(d2)
  binding result: no binding
Fc-hROR(d3)
  binding result: no binding
[1]
  Kd: 0.1 nM

— patent publication US20120058051A1 (US Dept. of Health and Human Services, published 2012)
